According to the Human Domainome abundance scans (Beltran et al. 2025):
± gives the uncertainty stated by the source.

experiment: abundance fitness (aPCA) (normalised: wild type 0, dead -1); higher = more abundant; growth selection in yeast, the domain comes from the species named; conditions: Homo sapiens

In order of rising abundance fitness:
1. Lipoamide acyltransferase component of branched-chain alpha-keto acid dehydrogenase complex, mitochondrial D204A, P11182  -1.24 ± 0.064
2. Lipoamide acyltransferase component of branched-chain alpha-keto acid dehydrogenase complex, mitochondrial D204V, P11182  -1.1 ± 0.072
3. Lipoamide acyltransferase component of branched-chain alpha-keto acid dehydrogenase complex, mitochondrial G195Y, P11182  -0.977 ± 0.35
4. Lipoamide acyltransferase component of branched-chain alpha-keto acid dehydrogenase complex, mitochondrial E190P, P11182  -0.963 ± 0.081
5. Lipoamide acyltransferase component of branched-chain alpha-keto acid dehydrogenase complex, mitochondrial D204Q, P11182  -0.932 ± 0.062
6. Lipoamide acyltransferase component of branched-chain alpha-keto acid dehydrogenase complex, mitochondrial I186P, P11182  -0.918 ± 0.11
7. Lipoamide acyltransferase component of branched-chain alpha-keto acid dehydrogenase complex, mitochondrial I200F, P11182  -0.76 ± 0.097
8. Lipoamide acyltransferase component of branched-chain alpha-keto acid dehydrogenase complex, mitochondrial V191R, P11182  -0.756 ± 0.045
9. Lipoamide acyltransferase component of branched-chain alpha-keto acid dehydrogenase complex, mitochondrial I200H, P11182  -0.678 ± 0.089
10. Lipoamide acyltransferase component of branched-chain alpha-keto acid dehydrogenase complex, mitochondrial I200T, P11182  -0.625 ± 0.06
11. Lipoamide acyltransferase component of branched-chain alpha-keto acid dehydrogenase complex, mitochondrial V191H, P11182  -0.619 ± 0.12
12. Lipoamide acyltransferase component of branched-chain alpha-keto acid dehydrogenase complex, mitochondrial L180G, P11182  -0.609 ± 0.041
13. Lipoamide acyltransferase component of branched-chain alpha-keto acid dehydrogenase complex, mitochondrial L201P, P11182  -0.602 ± 0.062
14. Lipoamide acyltransferase component of branched-chain alpha-keto acid dehydrogenase complex, mitochondrial G195R, P11182  -0.591 ± 0.042
15. Lipoamide acyltransferase component of branched-chain alpha-keto acid dehydrogenase complex, mitochondrial K196W, P11182  -0.52 ± 0.053
16. Lipoamide acyltransferase component of branched-chain alpha-keto acid dehydrogenase complex, mitochondrial G195Q, P11182  -0.483 ± 0.067
17. Lipoamide acyltransferase component of branched-chain alpha-keto acid dehydrogenase complex, mitochondrial G193T, P11182  -0.476 ± 0.047
18. Lipoamide acyltransferase component of branched-chain alpha-keto acid dehydrogenase complex, mitochondrial I186M, P11182  -0.419 ± 0.069
19. Lipoamide acyltransferase component of branched-chain alpha-keto acid dehydrogenase complex, mitochondrial V177T, P11182  -0.401 ± 0.06
20. Lipoamide acyltransferase component of branched-chain alpha-keto acid dehydrogenase complex, mitochondrial Q212F, P11182  -0.392 ± 0.11
21. Lipoamide acyltransferase component of branched-chain alpha-keto acid dehydrogenase complex, mitochondrial I205Y, P11182  -0.349 ± 0.15
22. Lipoamide acyltransferase component of branched-chain alpha-keto acid dehydrogenase complex, mitochondrial T174A, P11182  -0.347 ± 0.066
23. Lipoamide acyltransferase component of branched-chain alpha-keto acid dehydrogenase complex, mitochondrial A173W, P11182  -0.279 ± 0.071
24. Lipoamide acyltransferase component of branched-chain alpha-keto acid dehydrogenase complex, mitochondrial L201G, P11182  -0.275 ± 0.034
25. Lipoamide acyltransferase component of branched-chain alpha-keto acid dehydrogenase complex, mitochondrial D197K, P11182  -0.23 ± 0.048
26. Lipoamide acyltransferase component of branched-chain alpha-keto acid dehydrogenase complex, mitochondrial A176V, P11182  -0.168 ± 0.041
27. Lipoamide acyltransferase component of branched-chain alpha-keto acid dehydrogenase complex, mitochondrial N185H, P11182  -0.164 ± 0.16
28. Lipoamide acyltransferase component of branched-chain alpha-keto acid dehydrogenase complex, mitochondrial K211Y, P11182  -0.157 ± 0.1
29. Lipoamide acyltransferase component of branched-chain alpha-keto acid dehydrogenase complex, mitochondrial E190M, P11182  -0.147 ± 0.049
30. Lipoamide acyltransferase component of branched-chain alpha-keto acid dehydrogenase complex, mitochondrial K187H, P11182  -0.144 ± 0.057
31. Lipoamide acyltransferase component of branched-chain alpha-keto acid dehydrogenase complex, mitochondrial R199V, P11182  -0.129 ± 0.044
32. Lipoamide acyltransferase component of branched-chain alpha-keto acid dehydrogenase complex, mitochondrial K202S, P11182  -0.124 ± 0.049
33. Lipoamide acyltransferase component of branched-chain alpha-keto acid dehydrogenase complex, mitochondrial N185E, P11182  -0.09 ± 0.086
34. Lipoamide acyltransferase component of branched-chain alpha-keto acid dehydrogenase complex, mitochondrial L172T, P11182  -0.085 ± 0.1
35. Lipoamide acyltransferase component of branched-chain alpha-keto acid dehydrogenase complex, mitochondrial K211D, P11182  -0.076 ± 0.053
36. Lipoamide acyltransferase component of branched-chain alpha-keto acid dehydrogenase complex, mitochondrial A176T, P11182  -0.067 ± 0.051
37. Lipoamide acyltransferase component of branched-chain alpha-keto acid dehydrogenase complex, mitochondrial A173V, P11182  -0.059 ± 0.054
38. Lipoamide acyltransferase component of branched-chain alpha-keto acid dehydrogenase complex, mitochondrial K211C, P11182  -0.056 ± 0.053
39. Lipoamide acyltransferase component of branched-chain alpha-keto acid dehydrogenase complex, mitochondrial K196A, P11182  -0.054 ± 0.037
40. Lipoamide acyltransferase component of branched-chain alpha-keto acid dehydrogenase complex, mitochondrial R179A, P11182  -0.048 ± 0.042
41. Lipoamide acyltransferase component of branched-chain alpha-keto acid dehydrogenase complex, mitochondrial E210Q, P11182  -0.042 ± 0.053
42. Lipoamide acyltransferase component of branched-chain alpha-keto acid dehydrogenase complex, mitochondrial A176S, P11182  -0.036 ± 0.039
43. Lipoamide acyltransferase component of branched-chain alpha-keto acid dehydrogenase complex, mitochondrial T171D, P11182  -0.035 ± 0.073
44. Lipoamide acyltransferase component of branched-chain alpha-keto acid dehydrogenase complex, mitochondrial E190N, P11182  -0.032 ± 0.047
45. Lipoamide acyltransferase component of branched-chain alpha-keto acid dehydrogenase complex, mitochondrial N207G, P11182  -0.03 ± 0.042
46. Lipoamide acyltransferase component of branched-chain alpha-keto acid dehydrogenase complex, mitochondrial T171F, P11182  -0.028 ± 0.12
47. Lipoamide acyltransferase component of branched-chain alpha-keto acid dehydrogenase complex, mitochondrial T171N, P11182  -0.012 ± 0.058
48. Lipoamide acyltransferase component of branched-chain alpha-keto acid dehydrogenase complex, mitochondrial Y208K, P11182  0.051 ± 0.06
49. Nanos homolog 2 L111K, P60321  0.292 ± 0.074
